Experimental data as given in FireProtDB (doi:10.1021/bi010565n).

Settings: Aspergillus oryzae (strain ATCC 42149 / RIB 40), pH 7, Thermal, MOPS 30 mM, reversible: yes(0.94), whole UniProt chain shown

B1: Guanyl-specific ribonuclease T1 wild type, P00651 (protein)
chain: MMYSKLLTLTTLLLPTALALPSLVERACDYTCGSNCYSSSDVSTAQAAGYQLHEDGETVGSNSYPHKYNNYEGFDFSVSSPYYEWPILSSGDVYSGGSPGADRVVFNENNQLAGVITHTGASGNNFVECT
CD
  Tm: 51.2 °C
DSC
  Tm: 51.5 °C
